Results on 2 molecules are retold here after patent US20260193376A1 (Novo Nordisk, published 2026).

Experiment [1] addresses T1, wild-type FIX with C-terminal His-tag (human, UniProt P00740 47-461).
T1 construct: also called WT
The experiment is described as follows: SPR (Biacore T200), wild-type FIX captured via His-tag, 20 µM OA antibody (reference). How it is done:
(§1) SPR analyses were carried out on Biacore T200 instruments (Biacore AB, Uppsala, Sweden). For the experiments on the T200 instrument the following conditions were applied: measurements were conducted at a temperature of 25° C. Anti-His antibody at 25 μg/ml (R&D Systems, catalogue #MAB050) was immobilized on a CM5 sensor chip using standard amine coupling chemistry. […] at 25 nM were injected at a flow rate of 10 μl/min for 1 min and were captured via their His-tag by the immobilized anti-His antibody. […] The running buffer used was 20 mM Tris, 150 mM NaCl, 5 mM CaCl₂, 0.05% Tween-20, 10 mg/ml BSA, pH 7.4. This was also used for dilution of anti-FIX antibody and FIX samples. Regeneration of the chip was achieved using 10 mM Glycine pH 2.0. Binding data were analysed according to a 1:1 model using BiaEvaluation 4.1 supplied by the manufacturer (Biacore AB, Uppsala, Sweden).
(§2) where Rmax_FIXvar and Rmax_FIXwt represent capture level (RU) of FIX variant and wild-type FIX, respectively, and where R_{max_Ab,FIX_var} and R_{max_Ab,FIX_wt} represent Rmax (RU) of the 20 μM antibody to captured FIX variant and wild-type FIX, respectively.
A general note: In SPR one partner is held on a chip, and binding of the other changes the refractive index at the surface.

Experiment [2] addresses FIX R333A with C-terminal His-tag (human, UniProt P00740 47-461). The experiment is described as follows: SPR (Biacore T200), FIX variant captured via His-tag, 20 µM OA antibody. How it is done:
as §1, §2

In experiment [3] the target is FIX D332A with C-terminal His-tag (human, UniProt P00740 47-461). The description is as above. How it is done: as §1, §2
For experiment [4], the target named is FIX T340A with C-terminal His-tag (human, UniProt P00740 47-461). Described as above. How it is done: as §1, §2
Experiment [5] addresses FIX T335A with C-terminal His-tag (human, UniProt P00740 47-461). The description is as above. As to the method: as §1, §2
Experiment [6] has as its target FIX K301A with C-terminal His-tag (human, UniProt P00740 47-461). The experiment is described as above. How it is done: as §1, §2
Experiment [7] deals with FIX D332S with C-terminal His-tag (human, UniProt P00740 47-461). Described as above. As to the method: as §1, §2
In experiment [8] the target is FIX S339L with C-terminal His-tag (human, UniProt P00740 47-461). The description is as above. How it is done: as §1, §2
The target of experiment [9] is FIX N346Q with C-terminal His-tag (human, UniProt P00740 47-461). The description is as above. As to the method:
as §1, §2

In experiment [10] the target is FIX K341A with C-terminal His-tag (human, UniProt P00740 47-461). The description is as above. How it is done: as §1, §2
Experiment [11] addresses FIX N346A with C-terminal His-tag (human, UniProt P00740 47-461). The description is as above. How it is done:
as §1, §2

Experiment [12] concerns the target FIX K341E with C-terminal His-tag (human, UniProt P00740 47-461). Described as above. How it is done: as §1, §2
The target in experiment [13] is FIX A334L with C-terminal His-tag (human, UniProt P00740 47-461). The description is as above. As to the method: as §1, §2
Experiment [14] deals with FIX T343I with C-terminal His-tag (human, UniProt P00740 47-461). The experiment is described as above. As to the method:
as §1, §2

Experiment [15] deals with FIX L337A with C-terminal His-tag (human, UniProt P00740 47-461). The experiment is described as above. How it is done: as §1, §2
The target of experiment [16] is FIX R338A with C-terminal His-tag (human, UniProt P00740 47-461). The experiment is described as above. How it is done:
as §1, §2

In experiment [17] the target is FIX T343A with C-terminal His-tag (human, UniProt P00740 47-461). The description is as above. How it is done: as §1, §2
Experiment [18] addresses human plasma-derived Factor IXa (human, UniProt P00740 47-191; P00740 227-461). The experiment is described as follows: cell-based or functional assay.

Residue numbers refer to the chain shown, from its start.

Chain of human plasma-derived Factor IXa (P00740 47-191, chain 1 of 2): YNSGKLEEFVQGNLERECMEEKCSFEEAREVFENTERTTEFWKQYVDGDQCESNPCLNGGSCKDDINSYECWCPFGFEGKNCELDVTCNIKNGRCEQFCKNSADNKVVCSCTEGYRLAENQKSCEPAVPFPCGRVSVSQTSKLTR
Chain of human plasma-derived Factor IXa (P00740 227-461, chain 2 of 2): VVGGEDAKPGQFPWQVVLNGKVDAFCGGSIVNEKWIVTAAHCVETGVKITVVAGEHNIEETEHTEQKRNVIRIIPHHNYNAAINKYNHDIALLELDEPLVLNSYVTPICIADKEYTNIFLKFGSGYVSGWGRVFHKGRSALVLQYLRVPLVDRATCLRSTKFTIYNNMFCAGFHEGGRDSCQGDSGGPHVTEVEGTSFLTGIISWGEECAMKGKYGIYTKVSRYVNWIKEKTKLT
Chain of FIX D332A with C-terminal His-tag (P00740 other isoform, or with tags, fused parts or gaps D332A D332A limits assumed): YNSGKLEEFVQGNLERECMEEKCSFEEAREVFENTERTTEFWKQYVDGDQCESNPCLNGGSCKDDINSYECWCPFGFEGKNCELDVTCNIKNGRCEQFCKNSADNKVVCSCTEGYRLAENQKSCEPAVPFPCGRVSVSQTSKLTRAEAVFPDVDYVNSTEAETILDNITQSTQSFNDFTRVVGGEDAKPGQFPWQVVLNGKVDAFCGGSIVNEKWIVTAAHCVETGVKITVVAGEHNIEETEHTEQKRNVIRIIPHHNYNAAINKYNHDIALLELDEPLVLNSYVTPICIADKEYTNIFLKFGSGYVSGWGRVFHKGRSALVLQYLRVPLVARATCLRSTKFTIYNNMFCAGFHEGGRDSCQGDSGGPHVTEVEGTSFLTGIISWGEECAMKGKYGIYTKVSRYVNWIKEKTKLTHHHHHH
Chain of FIX N346Q with C-terminal His-tag (P00740 other isoform, or with tags, fused parts or gaps N346Q N346Q limits assumed): as the sequence (P00740 other isoform, or with tags, fused parts or gaps D332A D332A limits assumed) above, with A332D, N346Q counted along it
Chain of FIX S339L with C-terminal His-tag (P00740 other isoform, or with tags, fused parts or gaps S339L S339L limits assumed): as the sequence (P00740 other isoform, or with tags, fused parts or gaps D332A D332A limits assumed) above, with A332D, S339L counted along it
Chain of FIX T343A with C-terminal His-tag (P00740 other isoform, or with tags, fused parts or gaps T343A T343A limits assumed): as the sequence (P00740 other isoform, or with tags, fused parts or gaps D332A D332A limits assumed) above, with A332D, T343A counted along it
Chain of FIX T335A with C-terminal His-tag (P00740 other isoform, or with tags, fused parts or gaps T335A T335A limits assumed): as the sequence (P00740 other isoform, or with tags, fused parts or gaps D332A D332A limits assumed) above, with A332D, T335A counted along it
Chain of FIX K341E with C-terminal His-tag (P00740 other isoform, or with tags, fused parts or gaps K341E K341E limits assumed): as the sequence (P00740 other isoform, or with tags, fused parts or gaps D332A D332A limits assumed) above, with A332D, K341E counted along it
Chain of FIX T340A with C-terminal His-tag (P00740 other isoform, or with tags, fused parts or gaps T340A T340A limits assumed): as the sequence (P00740 other isoform, or with tags, fused parts or gaps D332A D332A limits assumed) above, with A332D, T340A counted along it
T1 sequence (P00740 other isoform, or with tags, fused parts or gaps limits assumed): as the sequence (P00740 other isoform, or with tags, fused parts or gaps D332A D332A limits assumed) above, with A332D counted along it
Chain of FIX T343I with C-terminal His-tag (P00740 other isoform, or with tags, fused parts or gaps T343I T343I limits assumed): as the sequence (P00740 other isoform, or with tags, fused parts or gaps D332A D332A limits assumed) above, with A332D, T343I counted along it
Chain of FIX N346A with C-terminal His-tag (P00740 other isoform, or with tags, fused parts or gaps N346A N346A limits assumed): as the sequence (P00740 other isoform, or with tags, fused parts or gaps D332A D332A limits assumed) above, with A332D, N346A counted along it
Chain of FIX K301A with C-terminal His-tag (P00740 other isoform, or with tags, fused parts or gaps K301A K301A limits assumed): as the sequence (P00740 other isoform, or with tags, fused parts or gaps D332A D332A limits assumed) above, with K301A, A332D counted along it
Chain of FIX L337A with C-terminal His-tag (P00740 other isoform, or with tags, fused parts or gaps L337A L337A limits assumed): as the sequence (P00740 other isoform, or with tags, fused parts or gaps D332A D332A limits assumed) above, with A332D, L337A counted along it
Chain of FIX K341A with C-terminal His-tag (P00740 other isoform, or with tags, fused parts or gaps K341A K341A limits assumed): as the sequence (P00740 other isoform, or with tags, fused parts or gaps D332A D332A limits assumed) above, with A332D, K341A counted along it
Chain of FIX D332S with C-terminal His-tag (P00740 other isoform, or with tags, fused parts or gaps D332S D332S limits assumed): as the sequence (P00740 other isoform, or with tags, fused parts or gaps D332A D332A limits assumed) above, with A332S counted along it
Chain of FIX A334L with C-terminal His-tag (P00740 other isoform, or with tags, fused parts or gaps A334L A334L limits assumed): as the sequence (P00740 other isoform, or with tags, fused parts or gaps D332A D332A limits assumed) above, with A332D, A334L counted along it
Chain of FIX R333A with C-terminal His-tag (P00740 other isoform, or with tags, fused parts or gaps R333A R333A limits assumed): as the sequence (P00740 other isoform, or with tags, fused parts or gaps D332A D332A limits assumed) above, with A332D, R333A counted along it
Chain of FIX R338A with C-terminal His-tag (P00740 other isoform, or with tags, fused parts or gaps R338A R338A limits assumed): as the sequence (P00740 other isoform, or with tags, fused parts or gaps D332A D332A limits assumed) above, with A332D, R338A counted along it

B1: one-armed (OA) mAb01-9994 (antibody, V domains shown)
VH: EVQLVESGGGLVQPGRSLRLSCAASGFTFHDYAMHWVRQVPGKGLEWVSGISWKGDIGGYVDSVKGRFTISRDNEKNSLYLQMNSLRAEDTALYYCVKSYGSGSFYNAFDSWGQGTLVTVSS
VL: DIQMTQSPSTLSASVGDRVTITCRASQSISSWLAWYQQKPGKAPKFLIYKASRLDRGTPSRFSGSGSGTEFSLTISSLQPDDFATYYCLEYSSYIRTFGQGTKVEIK
notes: also called OA variant of mAb01-9994
In the case of B1, the “Binding (%) relative to wild-type FIX” value in experiment [1] is 100%; in experiment [2] it was 55%; in experiment [3], 41%; in [4], 16%; in experiment [5], 43%; in experiment [6], 89%. The “Binding (%) relative to wild-type FIX” value in experiment [7] is 41%; in experiment [8], 46%; in experiment [9], 101%; in [10], 18%; in [11], 92%; in experiment [12], 3%. Also, the “Binding (%) relative to wild-type FIX” value was found to be 38% in [13]; 62% in experiment [14]; 38% in experiment [15]; 0% in experiment [16]; 58% in [17]. Besides, in experiment [18], the “Stimulation Index, FXa generation assay, 3600 nM OA antibody” value amounted to 10600 fold.

B2: one-armed (OA) mAb01-9985 (antibody, V domains shown)
VH: B1 VH with K54R, D62K, E75A
VL: B1 VL with R53K, D55E
notes: also called OA variant of mAb01-9985
B2: the “Binding (%) relative to wild-type FIX” value in experiment [1] is 100%; in experiment [2], 73%; in experiment [3], 59%; in experiment [4], 29%; in [5], 64%; in [6], 94%. The “Binding (%) relative to wild-type FIX” value is 59% in experiment [7]; 66% in experiment [8]; 93% in [9]; 30% in experiment [10]; 100% in experiment [11]; 10% in experiment [12]. Moreover, the “Binding (%) relative to wild-type FIX” value in experiment [13] turned out to be 60%; in [14], 84%; in experiment [15], 61%; in experiment [16], 8%; in [17], 86%. Moreover, in experiment [18], the “Stimulation Index, FXa generation assay, 2400 nM OA antibody” value was found to be 13700 fold.
